B1: Pistol ribozyme (parent)
chain: GGGUCGUUGUUCCAUAAUCGCGUGGAUAUGGCACGCAAGUUUCUACCGGGCACCGUAAAUGUCCGACUGGAGCCGUUCGGGCGGCUAUAAACAGACCUCAGGCCCGAAGCGUGGCGGCACCUGCCGCCGGUGGUAAAAAAGAUCGGAAGAGCACACGUCU

Variants of: B1
Assay: aptazyme ON/OFF ratio, guanine; higher = stronger switching; co-transcriptional cleavage with and without guanine

Variant | aptazyme ON/OFF ratio
GGGUCGAGCACCAAUAAUCGCGUGGAUAUGGCACGCAAGUUUCUACCGGGCACCGUAAAUGUCCGACUGGAGCCGUUCGGGCGGCUAUAAACAGACCUCAGGCCCGAAGCGUGGCGGCACCUGCCGCCGGUGGUAAAAAAGAUCGGAAGAGCACACGUCU | 1.04
GGGUCGAGCACCGAUAAUCGCGUGGAUAUGGCACGCAAGUUUCUACCGGGCACCGUAAAUGUCCGACUGGAGCCGUUCGGGCGGCUAUAAACAGACCUCAGGCCCGAAGCGUGGCGGCACCUGCCGCCGGUGGUAAAAAAGAUCGGAAGAGCACACGUCU | 1.04
GGGUCGAGCACCUAUAAUCGCGUGGAUAUGGCACGCAAGUUUCUACCGGGCACCGUAAAUGUCCGACUGGAGCCGUUCGGGCGGCUAUAAACAGACCUCAGGCCCGAAGCGUGGCGGCACCUGCCGCCGGUGGUAAAAAAGAUCGGAAGAGCACACGUCU | 1.04
GGGUCGAGCACACAUAAUCGCGUGGAUAUGGCACGCAAGUUUCUACCGGGCACCGUAAAUGUCCGACUGGAGCCGUUCGGGCGGCUAUAAACAGACCUCAGGCCCGAAGCGUGGCGGCACCUGCCGCCGGUGGUAAAAAAGAUCGGAAGAGCACACGUCU | 1.29
GGGUCGAGCACGCAUAAUCGCGUGGAUAUGGCACGCAAGUUUCUACCGGGCACCGUAAAUGUCCGACUGGAGCCGUUCGGGCGGCUAUAAACAGACCUCAGGCCCGAAGCGUGGCGGCACCUGCCGCCGGUGGUAAAAAAGAUCGGAAGAGCACACGUCU | 1.22
GGGUCGAGCACUCAUAAUCGCGUGGAUAUGGCACGCAAGUUUCUACCGGGCACCGUAAAUGUCCGACUGGAGCCGUUCGGGCGGCUAUAAACAGACCUCAGGCCCGAAGCGUGGCGGCACCUGCCGCCGGUGGUAAAAAAGAUCGGAAGAGCACACGUCU | 1.04
GGGUCGAGCACCCAUAAUCGCGUGGAUAUGGCACGCAAGUUUCUACCGGGCACCGUAAAUGUCCGACUGGAGCCGUUCGGGCGGCUAUAAACAGACCUCAGGCCCGAAGCGUGGCGGCACCUGCCGCCGGUGGUAAAAAAGAUCGGAAGAGCACACGUCU | 1.04
GGGUCGAGCACGUAUAAUCGCGUGGAUAUGGCACGCAAGUUUCUACCGGGCACCGUAAAUGUCCGACUGGAGCCGUUCGGGCGGCUAUAAACAGACCUCAGGCCCGAAGCGUGGCGGCACCUGCCGCCGGUGGUAAAAAAGAUCGGAAGAGCACACGUCU | 1.26
GGGUCGAGCACGAAUAAUCGCGUGGAUAUGGCACGCAAGUUUCUACCGGGCACCGUAAAUGUCCGACUGGAGCCGUUCGGGCGGCUAUAAACAGACCUCAGGCCCGAAGCGUGGCGGCACCUGCCGCCGGUGGUAAAAAAGAUCGGAAGAGCACACGUCU | 1.27
GGGUCGAGCACGGAUAAUCGCGUGGAUAUGGCACGCAAGUUUCUACCGGGCACCGUAAAUGUCCGACUGGAGCCGUUCGGGCGGCUAUAAACAGACCUCAGGCCCGAAGCGUGGCGGCACCUGCCGCCGGUGGUAAAAAAGAUCGGAAGAGCACACGUCU | 1.17
GGGUCGAGCACAGAUAAUCGCGUGGAUAUGGCACGCAAGUUUCUACCGGGCACCGUAAAUGUCCGACUGGAGCCGUUCGGGCGGCUAUAAACAGACCUCAGGCCCGAAGCGUGGCGGCACCUGCCGCCGGUGGUAAAAAAGAUCGGAAGAGCACACGUCU | 1.28
GGGUCGAGCACAAAUAAUCGCGUGGAUAUGGCACGCAAGUUUCUACCGGGCACCGUAAAUGUCCGACUGGAGCCGUUCGGGCGGCUAUAAACAGACCUCAGGCCCGAAGCGUGGCGGCACCUGCCGCCGGUGGUAAAAAAGAUCGGAAGAGCACACGUCU | 1.17
GGGUCGAGCACAUAUAAUCGCGUGGAUAUGGCACGCAAGUUUCUACCGGGCACCGUAAAUGUCCGACUGGAGCCGUUCGGGCGGCUAUAAACAGACCUCAGGCCCGAAGCGUGGCGGCACCUGCCGCCGGUGGUAAAAAAGAUCGGAAGAGCACACGUCU | 1.5
GGGUCGAGCACUGAUAAUCGCGUGGAUAUGGCACGCAAGUUUCUACCGGGCACCGUAAAUGUCCGACUGGAGCCGUUCGGGCGGCUAUAAACAGACCUCAGGCCCGAAGCGUGGCGGCACCUGCCGCCGGUGGUAAAAAAGAUCGGAAGAGCACACGUCU | 1.59
GGGUCGAGCACUUAUAAUCGCGUGGAUAUGGCACGCAAGUUUCUACCGGGCACCGUAAAUGUCCGACUGGAGCCGUUCGGGCGGCUAUAAACAGACCUCAGGCCCGAAGCGUGGCGGCACCUGCCGCCGGUGGUAAAAAAGAUCGGAAGAGCACACGUCU | 1.23
GGGUCGAGCACUAAUAAUCGCGUGGAUAUGGCACGCAAGUUUCUACCGGGCACCGUAAAUGUCCGACUGGAGCCGUUCGGGCGGCUAUAAACAGACCUCAGGCCCGAAGCGUGGCGGCACCUGCCGCCGGUGGUAAAAAAGAUCGGAAGAGCACACGUCU | 1.26
GGGUCGAGCAACUAUAAUCGCGUGGAUAUGGCACGCAAGUUUCUACCGGGCACCGUAAAUGUCCGACUGGAGCCGUUCGGGCGGCUAUAAACAGACCUCAGGCCCGAAGCGUGGCGGCACCUGCCGCCGGUGGUAAAAAAGAUCGGAAGAGCACACGUCU | 1.26
GGGUCGAGCAACGAUAAUCGCGUGGAUAUGGCACGCAAGUUUCUACCGGGCACCGUAAAUGUCCGACUGGAGCCGUUCGGGCGGCUAUAAACAGACCUCAGGCCCGAAGCGUGGCGGCACCUGCCGCCGGUGGUAAAAAAGAUCGGAAGAGCACACGUCU | 1.15

Reference: the RNAGym collection of RNA variant scans (doi:10.1021/acssynbio.7b00057)
